# Experimental data: patent publication US20140072544A1, “POLYBACTERIAL PREPARATION WITH HEALTH BENEFITS: ANTIOXIDANT EFFECT, REDUCTION OF CHOLESTEROL CONCENTRATION, ANTI-INFLAMMATORY IMMUNOMODULATING EFFECT AND RELEASE OF BIOACTIVE PEPTIDES INHIBITING ANGIOTENSIN-CONVERTING ENZYME” (LB BULGARICUM PLC, priority 2011, published 2014)
# Target: angiotensin-converting enzyme (ACE) (Homo sapiens, UniProt P12821)
# Assay: ACE-inhibiting activity of peptide extracts
# Type: biochemical
# Settings: purified single peptide released by L. helveticus A1 (HPLC fractionation, ion exchange)
# Protocol: Purified strains with inoculum of 0.1% are incubated for 18 hours in 9% skimmed milk at 37° C. After adjusting the pH to 4.3 with 50% lactic acid the samples are centrifuged (5000 g, 10 min). Supernatant is dosed at reverse-phase cartridge and washed with water. The process is followed by elution with 60% acetonitrile in 0.1% trifluoroacetic acid and then evaporation and reconstitution of the resulting extract. The extract or its dilutions are analyzed for inhibition of ACE.
# A total peptide extract is prepared. Enzymatic reaction is carried out by a conventional test, but using different dilutions of peptide extracts as their volume is 20 μl. The enzyme solution was 40 μl with an activity of 0.1 U/ml. The substrate hipuril-histidil-leucine is dissolved in borate buffer at pH 8.3 and has a volume of 190 μl. The final concentration of the substrate is 6 mM, and those of sodium chloride is 300 mM. The reaction is conducted at 37° C. for 30 minutes. The seizing is performed with 100 microliters of 4 n HCl, and the extraction of the freed hippuric acid is done with 1 ml of ethyl acetate. After evaporation of the solvent, the residue is dissolved in 1 ml of water and tested spectrophotometrically at 228 nm. […]
# where A is the absorbance under the upper reaction, C is the absorbance without enzyme, B is the absorbance without the involvement of peptide extracts. […]
# Sequence of angiotensin-converting enzyme (ACE) (P12821 30-1306, species assumed): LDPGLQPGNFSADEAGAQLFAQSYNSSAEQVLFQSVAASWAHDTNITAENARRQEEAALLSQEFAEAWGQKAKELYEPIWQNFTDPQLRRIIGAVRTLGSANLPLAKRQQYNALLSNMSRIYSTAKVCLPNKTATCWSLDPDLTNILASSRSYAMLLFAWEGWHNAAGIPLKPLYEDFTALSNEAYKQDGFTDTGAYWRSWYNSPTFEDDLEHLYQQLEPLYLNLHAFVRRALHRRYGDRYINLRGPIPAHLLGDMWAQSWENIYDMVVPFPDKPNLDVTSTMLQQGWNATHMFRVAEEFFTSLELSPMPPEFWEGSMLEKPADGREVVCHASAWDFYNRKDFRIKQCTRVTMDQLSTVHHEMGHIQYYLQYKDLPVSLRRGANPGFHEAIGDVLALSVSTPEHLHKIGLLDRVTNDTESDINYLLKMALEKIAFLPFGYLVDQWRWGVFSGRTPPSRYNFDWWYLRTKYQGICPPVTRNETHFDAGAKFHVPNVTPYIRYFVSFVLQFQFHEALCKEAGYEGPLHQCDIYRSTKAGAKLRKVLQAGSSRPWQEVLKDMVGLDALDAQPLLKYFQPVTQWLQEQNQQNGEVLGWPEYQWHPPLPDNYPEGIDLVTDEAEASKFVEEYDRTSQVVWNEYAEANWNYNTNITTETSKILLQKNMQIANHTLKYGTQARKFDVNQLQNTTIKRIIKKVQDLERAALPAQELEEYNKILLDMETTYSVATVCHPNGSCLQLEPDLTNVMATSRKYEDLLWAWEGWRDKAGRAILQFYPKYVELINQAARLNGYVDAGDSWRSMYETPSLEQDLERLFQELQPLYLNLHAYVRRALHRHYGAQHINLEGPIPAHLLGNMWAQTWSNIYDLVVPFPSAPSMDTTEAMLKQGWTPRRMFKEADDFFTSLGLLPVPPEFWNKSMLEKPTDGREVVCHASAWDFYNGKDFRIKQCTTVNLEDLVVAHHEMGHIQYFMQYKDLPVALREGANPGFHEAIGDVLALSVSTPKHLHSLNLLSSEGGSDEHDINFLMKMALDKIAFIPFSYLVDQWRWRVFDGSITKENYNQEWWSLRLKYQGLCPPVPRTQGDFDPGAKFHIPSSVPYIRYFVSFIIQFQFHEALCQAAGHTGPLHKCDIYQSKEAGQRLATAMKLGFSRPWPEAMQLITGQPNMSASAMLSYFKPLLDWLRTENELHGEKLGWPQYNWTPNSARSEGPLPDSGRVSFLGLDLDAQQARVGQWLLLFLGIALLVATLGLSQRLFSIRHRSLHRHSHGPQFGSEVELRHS
substance,measurement,value
"Ala-Leu-Pro-Met (ALPM; printed: Ala-Leu-Pro-Met) [anti-ACE peptide released by the strain L. helveticus A1, purified from fermented milk]",Anti-ACE activity %,78.0%
